Test results taken from the DeepSol protein solubility set.

Experiment: soluble on expression in E. coli; label from the status in PepcDB or PDB records

Sequence | soluble on expression in E. coli
MDGVVIKNTGSQYLVRCTDGTELYCMAKGNLRLKGIRSTNPVTVGDRVEIVPASQDGQPAYIKRIHPRRNYIIRRASNLSKESHILGANLDAAVLVCTINDPVTTTVFIDRFLATAEAYRVPVILVFNKIDCYTQEDRLQLDRLSAVYTAIGYPCCHVSAITGEGLPDLKSLLDGKLTLLAGHSGVGKSSLINALIPHADLRTGAISQAHHTGMHTTTFSQMIDFPDLSPGSALIDTPGIKGFGTLEMGEYEVSHYFPEIFAASKGCRFGNCTHTHEPGCAVLEALRRGEIAESRYISYLSILEDENAERYRPEY | not soluble
MKKFSSLFRSFMHFQLTLVKPLTRRSRPIELGRLNCTEPVSSNFGFERGRPIDRYYINIFLSQNTNDVRGRVLEISDNGYTKRLGGKKVKQSDVLHAVEGNPKATIVSDITKADNIPSDSFDCIILTQTLQFIYDTKSAVRHLHRILKPNGVLLATMSGISQISRYDMDHWGEYWRFTTASAKQLFEEEFLPENIEVKAYGNVLSSTAFLYGLAVEDLKTEQLDYHDPNYQMLVTVRAVKADKQLEHHHHHH | not soluble
MFDSTLNPLWQRYILAVQEEVKPALGCTEPISLALAAAVAAAELEGPVERVEAWVSPNLMKNGLGVTVPGTGMVGLPIAAALGALGGNANAGLEVLKDATAQAIADAKALLAAGKVSVKIQEPCDEILFSRAKVWNGEKWACVTIVGGHTNIVHIETHDGVVFTQQACVAEGEQESPLTVLSRTDAG | not soluble
MSRQPLSREDTAILVPALNEALRIREVVTDALTYCSHVIVIDDGSDDGTAECIAGMPVTLIRHPQRMGKGAALRSGFAQAQRLGMRAVMTMDGDGQHKAADFPRLLAAANRHPGCVIIGARMRKRATQPTIRRIGNDFGDWGIAWGCGFRLIDSQSGQRLYPASVFTLPNVPGEGFVFEAQLLISAARQAGARVVAVPIETRYAGTSPGTFRKSHFRLVRDLWNITSHVVKQVWAYGHVWREYRRVRANPVIVDDPDGEFATVPAVTKSNHSSLEHHHHHH | not soluble
MRGSHHHHHHGSPPAAPITLWTGPGPSINGFINDTPVIRCFICLTRDSNLVTVNASFVGEGGYRIVSPTQSQFSLIMEFDQFGQLMSTGNINSTTTWGEKPWGNNTVQPRPSHTWKLCMPNREVYSTPAATISRCGLDSIAVDGAPSRSIDCMLIINKPKGVATYTLTFRFLNFNRLSGGTLFKTDVLTFTYVGENQ | soluble
MSTDTSGVGVREIDAGALPTRYARGWHCLGVAKDYLEGKPHGVEAFGTKLVVFADSHGDLKVLDGYCRHMGGDLSEGTVKGDEVACPFHDWRWGGDGRCKLVPYARRTPRMARTRSWTTDVRSGLLFVWHDHEGNPPDPAVRIPEIPEAASDEWTDWRWNRILIEGSNCRDIIDNVTDMAHFFYIHFGLPTYFKNVFEGHIASQYLHNVGRPDVDDLGTSYGEAHLDSEASYFGPSFMINWLHNRYGNYKSESILINCHYPVTQNSFVLQWGVIVEKPKGMSEEMTDKLSRVFTEGVSKGFLQDVEIWKHKTRIDNPLLVEEDGAVYQLRRWYEQFYVDVADIKPEMVERFEIEVDTKRANEFWNAEVEKNLKSREVSDDVPAEQH | soluble
MGSDKIHHHHHHMLTWRKHGLIYSPQAHPPLIGGAGYAQSPQALVFDDFVRIYFSTRELDDKNNKFISRVSYVDMDKNLQEILKVSAAPVIAHAELGTFDEHGIFPFNVLRHNGAVMAWTTGWNRRVSVSVDTSIGLAISHDGGDTFQRHATGPVMSASLHEPYLVGDAFVQHIEGRFHMWYIYGVGWKRQQSDSPPDRIYKIAHAVSDDGIDWVRESKPIIADLLGDDECQALPTVIKVGNRYHMIFCYRECFDFRLGSGRGYRLGYAWSDDLVTWHRDDTQVPAVSESGEWDSEMQCYPHLFQCDEKVYLLYNGNAFGKEGFGLAELTACSE | not soluble
MSLSQASTVCALNDHLPNTVLRLPLKYPSTNKELKSHEYFESQIAYTGCLIATTTHMVDHISWRLNNDLKTITLTPICISNPFQLECRTISLLLPSQVYPHCIDAVYHGEEGGYLVVDVIDENYLWITLRIEMNDFLHNTKNFRPLTLDQFESWGHISVPYSFELRSNPYCLRVLDERNVVVSLKDGGLLHFQRSSVLADFNVFNCEESAHFHLGGILDGIFKSGRADLTVDGVSSNAAIDATIVPDPSKSLIATLTVSKTIKFWDLKEHSLLRERTIHPQDTNTWLSFGPARYLQCYGNVLGVHSLLQTKHSTSIDFWDVSPLKEDQKSYKILHTVELLSPTINGAPSDSPFSNDIWFIQDFTLKFEKGNFTVLWKSNNSSILTIYDLKNLAENDKPPKLSQWTLSGSEGHHHHHH | soluble
AALAEIVAQLNIYQSQVELIQQQMEAVRATISELEILEKTLSDIQGKDGSETLVPVGAGSFIKAELKDTSEVIMSVGAGVAIKKNFEDAMESIKSQKNELESTLQKMGENLRAITDIMMKLSPQAEELLAAVA | soluble
MGGDSKGTYCGAPILGPGSAPKLSTKTKFWRSSTTPLPPGTYEPAYLGGKDPRVKGGPSLQQVMRDQLKPFTEPRGKPPKPSVLEAAKKTIINVLEQTIDPPEKWSFTQACASLDKTTSSGHPHHMRKNDCWNGESFTGKLADQASKANLMFEGGKNMTPVYTGALKDELVKTDKIYGKIKKRLLWGSDLATMIRCARAFGGLMDELKAHCVTLPIRVGMNMNEDGPIIFERHSRYKYHYDADYSRWDSTQQRAVLAAALEIMVKFSSEPHLAQVVAEDLLSPSVVDVGDFKISINEGLPSGVPCTSQWNSIAHWLLTLCALSEVTNLSPDIIQANSLFSFYGDDEIVSTDIKLDPEKLTAKLKEYGLKPTRPDKTEGPLVISEDLNGLTFLRRTVTRDPAGWFGKLEQSSILRQMYWTRGPNHEDPSETMIPHSQRPIQLMSLLGEAALHGPAFYSKISKLVIAELKEGGMDFYVPRQEPMFRWMRFSDLSTWEGDRNLAPSFVNEDGVEVDKLAAALEHHHHHH | soluble
MSLTIYHPAELPQRQAEKSPNKTIIKYYDRESKQWRNISWSKFAAGVMNAAKALAEIGLESGERIGIYSPNMVHCLYTELGAFAMRGVVVPLYATSSPEQLRFIVEDSSMETLFVGEQFQYNNAYRVQKEYGTLKRIVVFDERVVLNPEDKTSKYFSEFVRLGDSMPNETKVKVSSREAIPSDPALIIYTSGTSGRSKGVLLLHSNLMYQMKVHSEHIPVYGPGELSIAFLPMSHIFEKAWTLFCLTTGTRIAILRDPKKVLEALPQIRPSLMCNVPRFWEKVYQGVNEKMASSPRILKGVYRRAMAVGQRYRLDYWNEGKRAPLLLSMQYAFYNCTIFTLLKRVLGLQRGRYFPTAGAPLSDEINIFLQSVNIPIIVGYGLSETTATVSFYPQRGFKIGSMGKVMPGLDARIDPDNNEILVKGESVMSEYYNLPEETAGAFTPDGYFRTGDAGRMDPDGTLYFLERIKDLYKTANGKYIAPQMIEGMLTKDPIIEQIAVIGDRFKYVSALVYPNWELVRQAAIKRGLEQAREGHHHHHH | not soluble
MINAVGNPQTLLLLGGTSEIGLAICEEYLKKAPMRVILAALPGDPGRDAAVAQLKAAGANAVDVIDFDAVDTESHPKVIDEAWAKSDVDVAIVAFGLLGDAEELWQNQRKAVQIAEVNYTAAVSVGVLVGEKMKAQGFGQIIAMSSAAGERVRRSNFVYGSTKAGLDGFYLGLGEALREFGPRVLVIRPGQVRTRMSADVKEAPLTVNKEDVAKLAVTSAEKGKDLVWAPGAFRYVMMILRHIPRPIFKKLPI | not soluble
MGSDKIHHHHHHMTNIEVEINDNYICVYERLNDDCIRLLHMYGKNPVCVVPDMLDGMRVTELAEYCFSFKSMPEKLKTELGIDDILRPDMTELCDDYIERVILPDGMKKIGRLCFYNCSRLTMLELPSDICDVDGDAFMNCTKLYMLVMRGSPKDKSCLKQILSQISTLVRVRWADSDGNAIAQACFFEYDQTYDEIGPAHIFKLNMNGEGFRARQAFMDRVFVWKQYDEIFSEAIAQESEDDLLDMAFYRLIYAYELSKEARQQFLEYIVNHKKRLSELIIRKRDSGLLQSFLELKDGEENFIADVLAVTDMLALAAQDEWSEGSVILHRFKKENLSVSRKRRFEF | not soluble
RFEPSFLDKLFDDEPHVPAPAAMRQLSLEELKNTVARDVEAILNTRIALTEEDLAALPECQRSVLTYGLNDFAGLSLASHYDRTFICKSIQQAIARHEPRLQQVQVTFELNEQSTNALYFAIQALLVVHPAEEPVTFDAMLQPS | not soluble
